In the supplement of paper PMC9170038:

Test system: MS2 coat protein
Assay: apparent KD of MS2 coat protein; designed switch direction (-1 OFF switch, 1 ON switch): -1; higher = weaker reporter binding
How it was run: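 The apparent KD reported per design is the median over clusters of curve fits to normalised cluster fluorescence. The RNA switches were transcribed on Illumina chips by stalled E. coli RNA polymerase. SNAP-549-labelled MS2 coat protein was titrated from 0.7 or 1.5 nM, doubling up to 3 µM, in Tris-HCl pH 7.5 buffer containing KCl, MgCl2, BSA, DTT, tRNA and Tween-20, with no input, 200 uM small-molecule ligand, or an oligonucleotide input.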

[1] = Eterna round: R95, input ligand: FMN 200 uM
[2] = Eterna round: R95, input ligand: microRNA oligo, concentration not stated
[3] = Eterna round: R95, input ligand: none
[4] = input ligand: microRNA oligo, concentration not stated

Sequence | apparent KD of MS2 coat protein [1] [µM] | apparent KD of MS2 coat protein [2] [µM] | apparent KD of MS2 coat protein [3] [µM] | apparent KD of MS2 coat protein (input ligand: FMN 200 uM) [µM] | apparent KD of MS2 coat protein (input ligand: none) [µM] | apparent KD of MS2 coat protein [4] [µM]
ACAACAAGCUUUUUGAACGUAGAACAUGAAGCUCUAGUCACAUGAGGAUCACCCAUGUCAGCCAGUUAGAUAGGUGA [JR_SV3TOV2_Sub065] (puzzle: Sensor v3, turn-off variant 2) | 0.0645 | 0.049 | 0.0512 |  |  | 
GAUUAACAUGAGGAUCACCCAUGUGAGGAUAUGGAAUGGCUCAUUGUUUGAUUCCCGUCUAGAAGGCACAUCUU [1986#7] (Eterna round: R97, puzzle: Exclusion 1) |  |  |  | 0.15 | 0.116 | 
CUUUUGUGAGGAUAUCAGUAGUAAAAGAAUAAAAUUACUACUGAGAAGGCACAUGAGGAUCACCCAUGUUCCUC [Mat - Exclusion 4 - Mod of Salish - D61] (puzzle: Exclusion 4) |  | 0.0367 |  |  |  | 
UUUUUGUUUUUGUUUUUUGACAUGAGGAUCACCCAUGUCACGAGCAGAUCUUCAUGCAAGCUUUUUGCUCGUCUUAU [Sensor v3 - Turn-off variant 1 - 39] (puzzle: Sensor v3, turn-off variant 1) | 0.0628 | 0.0469 | 0.0833 |  |  | 
ACGCAUUGCCUUUGGUAGUGCGUAACAUGAGGAUCACCCAUGUAGGAUAUGGUAGGCUUUGCUUACCAGAAGGACAUUGUUGAU [Omei mod of JL ENG3 1.03] (Eterna round: R96, puzzle: Exclusion NG 3) |  |  |  | 0.22 | 0.13 | 0.107
AGUACUAACACGAGAGUGUUAGUACUAUAAGCUUGUGUUACAUGAGGAUCACCCAUGUCCUCAUAGGCUCGUCUUAA [Mat - Sensor v3 - Turn-off var 2 - D82] (puzzle: Sensor v3, turn-off variant 2) | 0.0758 | 0.0755 | 0.0814 |  |  | 
CCUCGUGCACGAGGAUAUUGGAAAGGAAGUGUACGAGAAGGCGUGCCGAGGGAACAUGAGGAUCACCCAUGUGGCCUCAUCACA [PowerStrip EXNG 1.13] (Eterna round: R96, puzzle: Exclusion NG 1) |  |  |  | 0.12 | 0.152 | 0.0975
GGCAGUACAGAGGAUAUCUGGACCUACAGGAAUAGAGAAGGUUGUACAUGAGGAUCACCCAUGUCGACACUCAG [Eternabot (Original) Solution 11] (Eterna round: R97, puzzle: Exclusion 6) |  |  |  | 0.0132 | 0.0137 | 
AUAAAAGCAGGAUAUGCGCGGUGUGAUGCCGCAUGCUCGUCACAUGAGGAUCACCCAUGUAGAAGGGCUAAAUG [Diramadidi] (Eterna round: R97, puzzle: Exclusion 2) |  |  |  | 0.0193 | 0.0156 | 
AAGAGUGCAGGAUAUACGUGAGAAAGGAGGAUGAGAGAAGGACAUGAGGAUCACCCAUGUAGAAGGGCAGAGAG [JR_Exclu2_Sub060] (puzzle: Exclusion 2) | 0.0298 | 0.0364 | 0.0768 |  |  | 
CUAAUUCGAGGAUAUGCAAUGGAGUCUUUAAUAUAGUUCUCACAUGAGGAUCACCCAUGUAGAAGGCGAGCGGG [Eternabot (L1) Solution 50] (Eterna round: R97, puzzle: Exclusion 2) |  |  |  | 0.115 | 0.0531 | 
GAGGGACAUGAGGAUCACCCAUGUGAGGAUAUGGAGAGGAGGAGGGAGGAGGAGGAGGCCAGAAGGCGCAAGAA [THE BEST I guess] (puzzle: Exclusion 1) | 0.0226 | 0.028 | 0.046 |  |  | 
CAUUGUUAUCGAGGAUAUCGUAUUGAGAUACUACGAGAAGGCGGACUAAACAUGAGGAUCACCCAUGUGAGACGGAUGCUUGGG [Ex NG1 #33] (Eterna round: R96, puzzle: Exclusion NG 1) |  |  |  | 0.059 | 0.0343 | 0.021
UUAUAUAGUGUGAGGAUAUGCUGGUCCUUGGAUCAGCAGAAGGCACAUGAGGAUCACCCAUGUAAUAUAUUAUU [JL bmx4 3.07] (puzzle: Brourd's mod of Exclusion 4) |  | 0.0582 |  |  |  | 
UUCUAACGAGGAUAUCGAUGGUGGAACAUGAGGAUCACCCAUGUAUGAGAUAUUGUAGUUCGAGAAGGCGUUCAGU [JR_E5_Sub057] (Eterna round: R96, puzzle: Exclusion 5) |  |  |  | 0.0359 | 0.0486 | 0.0323
CAGUACUGAGGAUAUACAUGAGGAUCACCCAUGUGUUCCAGCUAGGAUACUAGCAAAGGAAGAAGGCAGUACUG [Mat - Exclusion 3 - Eli Mod - D2] (Eterna round: R97, puzzle: Exclusion 3) |  |  |  | 0.0194 | 0.0189 | 
GCCGAAAAUGUGAGGAUAUACCUAUGGAUACAUAGGUAGAAGGCACAUGAGGAUCACCCAUGUGUUUCAACGGC [Eli bmx4 4.21] (Eterna round: R97, puzzle: Brourd's mod of Exclusion 4) |  |  |  | 0.0948 | 0.0222 | 

Sequence | apparent KD of MS2 coat protein [1] [µM] | apparent KD of MS2 coat protein [2] [µM] | apparent KD of MS2 coat protein [3] [µM] | apparent KD of MS2 coat protein (input ligand: FMN 200 uM) [µM] | apparent KD of MS2 coat protein (input ligand: none) [µM] | apparent KD of MS2 coat protein [4] [µM]
AAGCUGUGAGGAUAUACAUGAGGAUCACCCAUGUUAAGGAAGUCGGGAUUAAUUUGGUGUAGAAGGCGCUUAUU [JR_Ex3_Sub019] (Eterna round: R97, puzzle: Exclusion 3) |  |  |  | 0.0461 | 0.0486 | 
CUAGUAUAUCAGGAUAUGAUUUUAUAUAUUGGAUCAGAAGGGAUAACAUGAGGAUCACCCAUGUUAAGGAGUGA [JR_Ex6_Sub040] (Eterna round: R97, puzzle: Exclusion 6) |  |  |  | 0.155 | 0.045 | 
GUCAGCUCGUCAGGAUAUGCACAUGAGGAUCACCCAUGUAAGAUCAAGCUGCUUCGGCAGCAAGUGCAGAAGGGACGAGCUGAU [ENG2/9-B3] (Eterna round: R96, puzzle: Exclusion NG 2) |  |  |  | 0.156 | 0.294 | 0.214
CAGUCGAUAAGAUCAAUUAAUUAACAUGAGGAUCACCCAUGUGAGGAUAUCAGCUCGUGUAGAGCUGAGAAGGCACAACGACUG [ExNG3/17-A3] (Eterna round: R96, puzzle: Exclusion NG 3) |  |  |  | 0.278 | 0.0602 | 0.0517
ACAGUGUUAGGAUAUGUGAGAGUUAGUCUCGACUAGUCGAAGCAGAAGGAACAUGAGGAUCACCCAUGUAGAUC [EX4 #78] (Eterna round: R97, puzzle: Exclusion 4) |  |  |  | 0.114 | 0.0467 | 
UAAUGUAUAUAGGAUAUCUAGCUGGAAACAGCUAGAGAAGGAUGUACAUGAGGAUCACCCAUGUAAAUCUCAAU [Ex6/12-B1] (Eterna round: R97, puzzle: Exclusion 6) |  |  |  | 0.0274 | 0.0191 | 
UAUGAGUCAGGAUAUUAGUAGUGUGUGGAUACAUAUAUUGCUGAGAAGGGACAUGAGGAUCACCCAUGUAUAAG [JR_Ex4_Sub056] (Eterna round: R97, puzzle: Exclusion 4) |  |  |  | 0.0653 | 0.0261 | 
GGCAGGCUUGAGGAUAUGCAUAGGCUAGGCCUAGCAGAAGGCAAGACAUGAGGAUCACCCAUGUGUUCCUUGUG [jl-ex6-4.35 ViennaUCT mod] (Eterna round: R97, puzzle: Exclusion 6) |  |  |  | 0.545 | 0.322 | 
CAUCUCGUAGGAUAUUCACAAAAGCACAUGAGGAUCACCCAUGUUAUCCGACAUGAUGCCGAAGAAGGACGAAAAC [Di] (puzzle: Exclusion 5) | 0.107 | 0.0798 | 0.0789 |  |  | 
AGUAACCGUCACGAAAGUGAUGGUUACGCAAGUAAAUGUACAUGAGGAUCACCCAUGUCCUCAAUUGCUCGUCUUAU [Sensor 3 - 52] (puzzle: Sensor v3, turn-off variant 2) | 0.663 | 0.167 | 0.623 |  |  | 
CCGGAUAUGCAGGAUAUCGUAUCGGAUACGAUACGAGAAGGGUAUACAUGAGGAUCACCCAUGUGUCCUACCGG [Mat - Exclusion 6 - Eli Mod - D85] (puzzle: Exclusion 6) |  | 0.0198 |  |  |  | 
ACGUUUUUUGAGGAUAUGCGACGUUUUUUCGUCGUAGAAGGCGAUACAUGAGGAUCACCCAUGUUUAUGGGCAU [LRO-Ex6-18] (puzzle: Exclusion 6) |  | 0.129 |  |  |  | 
UUGUAACAUGAGGAUCACCCAUGUGAGGAUAUGGUUAAGUAAUGUAAUGUAAAGUAAUCCAGAAGGCACAAGUU [1st #23] (Eterna round: R97, puzzle: Exclusion 1) |  |  |  | 0.0703 | 0.0783 | 
AUUUAAUUUAAUAAGAUCACAUGAGGAUCACCCAUGUUAUAAUAGGAUAUCAGCUCGUUUAGAGCUGAGAAGGAUUAUAACAUG [ExNG3/9-A2] (Eterna round: R96, puzzle: Exclusion NG 3) |  |  |  | 0.0318 | 0.00721 | 0.0208
UAAACAAGCGAAAGAUCCCACAUGAGGAUCACCCAUGUGCUCGUCUUAUAAGGUACUGUGACGAAAGUCACGGUACC [Sensor 3, v1 - 91 v19] (Eterna round: R97, puzzle: Sensor, turn-off variant 1) |  |  |  | 0.0379 | 0.041 | 
AAGAGGAUCAAAGGAUAUGGAGCUGAAACGGCGCUAGAAGGUUGUCCAGUGUAACAUGAGGAUCACCCAUGUAGGGACCUCUAA [AK ExNG1-V2-3] (Eterna round: R96, puzzle: Exclusion NG 1) |  |  |  | 0.1 | 0.0429 | 0.0575
UACAUGAGGAUCACCCAUGUUUUGUCGUGUAUGGUAUUUAUCUAGGAUAUCAAGUUAAUUAUUUAUGAGAAGGAGAAUAUUAAU [JMF's solution 28] (Eterna round: R96, puzzle: Exclusion NG 3) |  |  |  | 0.037 | 0.039 | 0.0317
